Data as given in FireProtDB (doi:10.1371/journal.ppat.1004158).

Settings: Podospora anserina; pH 7.5; 25 °C; GdnHCl; optical density; whole UniProt chain shown

B1: Heterokaryon incompatibility protein s wild type, Q03689 (protein)
chain: MSEPFGIVAGALNVAGLFNNCVDCFEYVQLGRPFGRDYERCQLRLDIAKARLSRWGEAVKINDDPRFHSDAPTDKSVQLAKSIVEEILLLFESAQKTSKRYELVADQQDLVVFEDKDMKPIGRALHRRLNDLVSRRQKQTSLAKKTAWALYDGKSLEKIVDQVARFVDELEKAFPIEAVCHKLAEIEIEEVEDEASLTILKDAAGGIDAAMSDAAAQKIDAIVGRNSAKDIRTEERARVQLGNVVTAAALHGGIRISDQTTNSVETVVGKGESRVLIGNEYGGKGFWDN
  unfolding free energy: 2.9 kcal/mol
